pKd: −log10 of the molar value.
Molecular target: HIV-1 integrase (Human immunodeficiency virus 1 (BH10)) (UniProt P03366)
Assay: FP filter
[1] = 50 mM NaCl, stated about same Kd as 30N RNA
[2] = nitrocellulose filter, 250 mM NaCl, printed as 20x10^-6, data not shown

Substance | pKd [1] | pKd [2]
U5 21-mer ds | 7.60 | < 4.70
U5 21-mer ss | 7.60 | < 4.70
